What was measured:
Assay in all cases: cell-based or functional assay
hGLP-1R = hGLP-1R (Homo sapiens, UniProt P43220)
[1] = molecular target: human glucagon receptor (human) (UniProt P47871)
[2] = molecular target: T1, human GIP receptor (human) (UniProt P48546)
T1 sequence (looked up): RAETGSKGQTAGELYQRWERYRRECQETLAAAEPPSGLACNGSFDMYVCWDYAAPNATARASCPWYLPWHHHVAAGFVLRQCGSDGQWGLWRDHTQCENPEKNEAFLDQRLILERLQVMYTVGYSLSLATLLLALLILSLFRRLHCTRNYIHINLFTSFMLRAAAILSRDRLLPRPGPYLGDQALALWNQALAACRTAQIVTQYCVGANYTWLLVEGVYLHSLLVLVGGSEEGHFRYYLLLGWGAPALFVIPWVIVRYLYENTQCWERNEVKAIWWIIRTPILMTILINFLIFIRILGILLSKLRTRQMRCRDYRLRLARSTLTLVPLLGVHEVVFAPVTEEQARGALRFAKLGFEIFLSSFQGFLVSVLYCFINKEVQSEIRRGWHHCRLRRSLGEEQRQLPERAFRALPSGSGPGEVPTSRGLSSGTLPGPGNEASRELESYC

[3] = molecular target: human GLP-1R (SNAP-GLP-1R expressed in HEK293 cells) (human) (UniProt P43220)
[4] = molecular target: human GLP1-R (SNAP-GLP-1R expressed in HEK293 cells) (human) (UniProt P43220)
Sequence of human GLP1-R (SNAP-GLP-1R expressed in HEK293 cells) (human) (P43220 24-463): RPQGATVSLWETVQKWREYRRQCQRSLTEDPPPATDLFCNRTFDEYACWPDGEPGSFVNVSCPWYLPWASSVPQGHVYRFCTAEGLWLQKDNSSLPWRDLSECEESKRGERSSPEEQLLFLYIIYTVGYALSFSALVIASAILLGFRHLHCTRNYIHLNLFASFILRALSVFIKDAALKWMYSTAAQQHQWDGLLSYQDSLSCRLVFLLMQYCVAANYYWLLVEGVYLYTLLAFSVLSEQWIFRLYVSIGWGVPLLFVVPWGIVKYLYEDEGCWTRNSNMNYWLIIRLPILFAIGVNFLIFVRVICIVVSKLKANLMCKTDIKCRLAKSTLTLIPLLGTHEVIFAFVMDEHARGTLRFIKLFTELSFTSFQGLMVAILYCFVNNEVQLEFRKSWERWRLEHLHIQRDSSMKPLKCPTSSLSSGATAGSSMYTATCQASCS

Sequence of human GLP-1R (SNAP-GLP-1R expressed in HEK293 cells) (human) (P43220 24-463): as above
Sequence of hGLP-1R (P43220 24-463): as above
Sequence of human glucagon receptor (human) (P47871 26-477): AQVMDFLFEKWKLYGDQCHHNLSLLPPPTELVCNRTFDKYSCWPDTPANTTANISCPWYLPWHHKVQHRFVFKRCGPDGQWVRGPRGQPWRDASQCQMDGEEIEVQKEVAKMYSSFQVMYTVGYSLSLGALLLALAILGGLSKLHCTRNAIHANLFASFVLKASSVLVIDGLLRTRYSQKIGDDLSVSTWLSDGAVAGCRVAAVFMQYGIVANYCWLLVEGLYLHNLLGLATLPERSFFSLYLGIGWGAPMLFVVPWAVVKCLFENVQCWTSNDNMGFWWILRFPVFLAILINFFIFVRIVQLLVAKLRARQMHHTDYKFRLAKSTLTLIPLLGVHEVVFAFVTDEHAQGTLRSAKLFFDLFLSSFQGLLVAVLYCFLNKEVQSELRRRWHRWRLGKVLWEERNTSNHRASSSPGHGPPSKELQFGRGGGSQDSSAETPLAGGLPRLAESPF

Binder	Relative cAMP EC50 (hGLP-1R) [nM]	cAMP Rel EC50 (in the presence of 1% HSA) (hGLP-1R) [nM]	Relative cAMP EC50 [1] [nM]	cAMP Rel EC50 (in the presence of 1% HSA) [1] [nM]	Relative cAMP EC50 [2] [nM]	cAMP Rel EC50 (in the presence of 1% HSA) [2] [nM]	GLP1R Internalization EC50 [3] [nM]	Internalization % TOP [3] [%]	GLP1R Internalization EC50 [4] [nM]	Internalization % TOP [4] [%]	cAMP Rel EC50, nM (1% HSA) (hGLP-1R) [nM]	cAMP Rel EC50, nM (1% HSA) [1] [nM]	cAMP Rel EC50, nM (1% HSA) [2] [nM]
YXQGTFTSDFSXXLDKKAQXAFIEWLLEGGPSSGAPPPTGS (synthetic construct; SITE 2: note = 2-Aminoisobutyric Acid; SITE 12: note = L-ornithine; SITE 13: note = alpha-methyl-leucine; SITE 17: note = Lysine is chemically modified through conjugation of the epsilon-amino group of the Lysine side chain with (2-[2-(2-Amino-ethoxy)-ethoxy]-acetyl)-(gamma-Glu)) [Example 250]	2.08	194	3.81	201	0.154	11.7	97	45					
YXQGTFTSDFSXXLDKKAQXAFIEYLLAGGPSSGAPPPSGD (synthetic construct; SITE 2: note = 2-Aminoisobutyric Acid; SITE 12: note = L-ornithine; SITE 13: note = alpha-methyl-leucine; SITE 17: note = Lysine is chemically modified through conjugation of the epsilon-amino group of the Lysine side chain with (2-[2-(2-Amino-ethoxy)-ethoxy]-acetyl)-(gamma-Glu)) [Example 85]									326	48.3			
YXQGTFTSDFSXXLDKKAQXAFIEYLLEAGPSSGHPPPSGS (synthetic construct; SITE 2: note = 2-Aminoisobutyric Acid; SITE 12: note = L-ornithine; SITE 13: note = alpha-methyl-leucine; SITE 17: note = Lysine is chemically modified through conjugation of the epsilon-amino group of the Lysine side chain with (2-[2-(2-Amino-ethoxy)-ethoxy]-acetyl)2-(gamma-Glu)) [Example 253]	2.2	355	6.62	963	0.115	26.6	81.6	55.2					
YXQGTFTSDFSXXLDKKAQXAFIEYLLEAGPSSGHPPPSGH (synthetic construct; SITE 2: note = 2-Aminoisobutyric Acid; SITE 12: note = L-ornithine; SITE 13: note = alpha-methyl-leucine; SITE 17: note = Lysine is chemically modified through conjugation of the epsilon-amino group of the Lysine side chain with (2-[2-(2-Amino-ethoxy)-ethoxy]-acetyl)2-(gamma-Glu)) [Example 255]	1.9	272	5.48	883	0.107	21.9	47.1	51.8					
YXQGTFTSDFSXXLDKKAQXAFIEYLLEAGPSSGHPPPSGX (L-ornithine at residue 12; synthetic construct; SITE 2: note = 2-Aminoisobutyric Acid; SITE 12: note = L-ornithine; SITE 13: note = alpha-methyl-leucine; SITE 17: note = Lysine is chemically modified through conjugation of the epsilon-amino group of the Lysine side chain with (2-[2-(2-Amino-ethoxy)-ethoxy]-acetyl)2-(gamma-Glu)) [Example 256]	2.87	235	5.71	625	0.176	17.4	87.8	43.5					
YXQGTFTSDFSXXLDKKAQXAFIEYLLEAGPSSGXPPPSGS (ornithine at residue 12; synthetic construct; SITE 2: note = 2-Aminoisobutyric Acid; SITE 12: note = L-ornithine; SITE 13: note = alpha-methyl-leucine; SITE 17: note = Lysine is chemically modified through conjugation of the epsilon-amino group of the Lysine side chain with (2-[2-(2-Amino-ethoxy)-ethoxy]-acetyl)2-(gamma-Glu)) [Example 254]	3.08	265	4.9	767	0.121	21.4	31.9	47.8					
YXQGTFTSDFSRXLDKKAQXAFIEYLIEXGESSGAPPPSGE (synthetic construct; SITE 2: note = 2-Aminoisobutyric Acid; SITE 13: note = alpha-methyl-leucine; SITE 17: note = Lysine is chemically modified through conjugation of the epsilon-amino group of the Lysine side chain with (2-[2-(2-Amino-ethoxy)-ethoxy]-acetyl)-(gamma-Glu)-CO-(CH2) 16-CO2H; SITE 20: n) [Example 231]	1.3		2.12		0.119		36.1	27.7			223	443	27.4
YXQGTFTSDFSXXLDKKAQXAFIEYLLEXGPSSGAPPPSGX (synthetic construct; SITE 2: note = 2-Aminoisobutyric Acid; SITE 12: note = L-ornithine; SITE 13: note = alpha-methyl-leucine; SITE 17: note = Lysine is chemically modified through conjugation of the epsilon-amino group of the Lysine side chain with (2-[2-(2-Amino-ethoxy)-ethoxy]-acetyl)-(gamma-Glu)) [Example 279]	5.77	367	5.06	427	0.105	11.6	115	37.5					
YXQGTFTSDFSXXLDKKAQXAFIEYLLEXGPSSXAPPPSGS (synthetic construct; SITE 2: note = 2-Aminoisobutyric Acid; SITE 12: note = L-ornithine; SITE 13: note = alpha-methyl-leucine; SITE 17: note = Lysine is chemically modified through conjugation of the epsilon-amino group of the Lysine side chain with (2-[2-(2-Amino-ethoxy)-ethoxy]-acetyl)-(gamma-Glu)) [Example 238]	2.71		2.78		0.0909		32.1	38.2			262	334	8.78
YXQGTFTSDFSXXLDKKAQXAFIEYLLEXGPSSGAPPPSGT (synthetic construct; SITE 2: note = 2-Aminoisobutyric Acid; SITE 12: note = L-ornithine; SITE 13: note = alpha-methyl-leucine; SITE 17: note = Lysine is chemically modified through conjugation of the epsilon-amino group of the Lysine side chain with (gamma-Glu)-(2-[2-(2-Amino-ethoxy)-ethoxy]-acetyl)) [Example 276]	2.61	103	2.82	113	0.0708	6.28	237	68.4					
YXQGTFTSDFSXXLDKKAQXAFIEYLLEXGPSSGAPPPSGS (synthetic construct; SITE 2: note = 2-Aminoisobutyric Acid; SITE 12: note = L-ornithine; SITE 13: note = alpha-methyl-leucine; SITE 17: note = Lysine is chemically modified through conjugation of the epsilon-amino group of the Lysine side chain with (2-[2-(2-Amino-ethoxy)-ethoxy]-acetyl)-(gamma-Glu)) [Example 74]									72.7	53.3			
YXQGTFTSDFSXXLDKKAQXAFIEYLLEXGPSSGXPPPSGS (synthetic construct; SITE 2: note = 2-Aminoisobutyric Acid; SITE 12: note = L-ornithine; SITE 13: note = alpha-methyl-leucine; SITE 17: note = Lysine is chemically modified through conjugation of the epsilon-amino group of the Lysine side chain with (2-[2-(2-Amino-ethoxy)-ethoxy]-acetyl)-(gamma-Glu)) [Example 239]	2.9		2.14		0.0503		72.6	42.9			419	693	12
YXQGTFTSDFSXXLDKKAQXAFIEYLLEXGXSSGAPPPSGE (synthetic construct; SITE 2: note = 2-Aminoisobutyric Acid; SITE 12: note = L-ornithine; SITE 13: note = alpha-methyl-leucine; SITE 17: note = Lysine is chemically modified through conjugation of the epsilon-amino group of the Lysine side chain with (2-[2-(2-Amino-ethoxy)-ethoxy]-acetyl)-(gamma-Glu)) [Example 248]		438		241		10.6	67.4	39.5					
YXQGTFTSDXSKXLDKKAQXAFIEYLIAXGESSGAPPPSGS (synthetic construct; SITE 2: note = 2-Aminoisobutyric Acid; SITE 10: note = 3-(4-Pyridyl)-L-alanine; SITE 13: note = alpha-methyl-leucine; SITE 17: note = Lysine is chemically modified through conjugation of the epsilon-amino group of the Lysine side chain with (2-[2-(2-Amino-ethoxy)-ethoxy]-acetyl)) [Example 285]	2.87	365	2.32	409	0.0652	8.22	59.9	73.6					
YXQGTFTSDFSQXLDKKAQXAFIEYLIEXGESSGAPPPSGE (synthetic construct; SITE 2: note = 2-Aminoisobutyric Acid; SITE 13: note = alpha-methyl-leucine; SITE 17: note = Lysine is chemically modified through conjugation of the epsilon-amino group of the Lysine side chain with (2-[2-(2-Amino-ethoxy)-ethoxy]-acetyl)-(gamma-Glu)-CO-(CH2) 16-CO2H; SITE 20: n) [Example 233]	0.874		2.25		0.0884		24.8	41.8			223	453	28.1
YXQGTFTSDXSKXLDKKAQXAFIEYLIEXGESSGEPPPSGS (synthetic construct; SITE 2: note = 2-Aminoisobutyric Acid; SITE 10: note = 3-(4-Pyridyl)-L-alanine; SITE 13: note = alpha-methyl-leucine; SITE 17: note = Lysine is chemically modified through conjugation of the epsilon-amino group of the Lysine side chain with (2-[2-(2-Amino-ethoxy)-ethoxy]-acetyl)) [Example 282]	1.09	217	6.98	1830	0.163	22.1	28.7	71.9					
YXQGTFTSDFSXXLDKKAQXAFIEYLLEXGPSSGAPPPSGT (synthetic construct; SITE 2: note = 2-Aminoisobutyric Acid; SITE 12: note = L-ornithine; SITE 13: note = alpha-methyl-leucine; SITE 17: note = Lysine is chemically modified through conjugation of the epsilon-amino group of the Lysine side chain with (2-[2-(2-Amino-ethoxy)-ethoxy]-acetyl)-(gamma-Glu)) [Example 278]	4.11	241	4.45	274	0.0963	7.69	251	68.6					
YXQGTFTSDFSXXLDKKAQXAFIEYLLEXGXSSGAPPPSGS (synthetic construct; SITE 2: note = 2-Aminoisobutyric Acid; SITE 12: note = L-ornithine; SITE 13: note = alpha-methyl-leucine; SITE 17: note = Lysine is chemically modified through conjugation of the epsilon-amino group of the Lysine side chain with (2-[2-(2-Amino-ethoxy)-ethoxy]-acetyl)-(gamma-Glu)) [Example 242]	3.42		3.5		0.0916		56	38.2			242	484	5.94
YXQGTFTSDFSXXLDKKAQXAFIEYLLEXGHSSGAPPPSGS (synthetic construct; SITE 2: note = 2-Aminoisobutyric Acid; SITE 12: note = L-ornithine; SITE 13: note = alpha-methyl-leucine; SITE 17: note = Lysine is chemically modified through conjugation of the epsilon-amino group of the Lysine side chain with (2-[2-(2-Amino-ethoxy)-ethoxy]-acetyl)-(gamma-Glu)) [Example 241]	2.3		2.71		0.0748		64.4	37.6					
YXQGTFTSDXSKXLDKKAQXAFIEYLIEXGESSGAPPPSGS (synthetic construct; SITE 2: note = 2-Aminoisobutyric Acid; SITE 10: note = 3-(4-Pyridyl)-L-alanine; SITE 13: note = alpha-methyl-leucine; SITE 17: note = Lysine is chemically modified through conjugation of the epsilon-amino group of the Lysine side chain with (2-[2-(2-Amino-ethoxy)-ethoxy]-acetyl)) [Example 280]	0.95	171	8.63	1600	0.105	15.6	39.4	74.9					
YXQGTFTSDFSXXLDKKAQXAFIEYLLAGGPSSGAPPPSGE (synthetic construct; SITE 2: note = 2-Aminoisobutyric Acid; SITE 12: note = L-ornithine; SITE 13: note = alpha-methyl-leucine; SITE 17: note = Lysine is chemically modified through conjugation of the epsilon-amino group of the Lysine side chain with (2-[2-(2-Amino-ethoxy)-ethoxy]-acetyl)-(gamma-Glu)) [Example 86]									57.8	52.5			
YXQGTFTSDXSQXLDKKAQXAFIEYLIAGGPSSGAPPPSGE (synthetic construct; SITE 2: note = 2-Aminoisobutyric Acid; SITE 10: note = 3-(4-Pyridyl)-L-alanine; SITE 13: note = alpha-methyl-leucine; SITE 17: note = Lysine is chemically modified through conjugation of the epsilon-amino group of the Lysine side chain with (gamma-Glu)2-CO-(CH2)16-CO2H; SITE 20:) [Example 883]	1.05		4.02		0.0779		23.9	77.1					
YXQGTFTSDFSQXLDKKAQXAFIEYLIEXGESSGAPPPSGS (synthetic construct; SITE 2: note = 2-Aminoisobutyric Acid; SITE 13: note = alpha-methyl-leucine; SITE 17: note = Lysine is chemically modified through conjugation of the epsilon-amino group of the Lysine side chain with (2-[2-(2-Amino-ethoxy)-ethoxy]-acetyl)-(gamma-Glu)-CO-(CH2) 16-CO2H; SITE 20: n) [Example 232]	0.819		2.42		0.102		44.7	45.5			226	482	24.6
YXQGTFTSDFSXXLDKKAQXAFIEYLLAGGPSSGAPPPSGSE (synthetic construct; SITE 2: note = 2-Aminoisobutyric Acid; SITE 12: note = L-ornithine; SITE 13: note = alpha-methyl-leucine; SITE 17: note = Lysine is chemically modified through conjugation of the epsilon-amino group of the Lysine side chain with (2-[2-(2-Amino-ethoxy)-ethoxy]-acetyl)-(gamma-Glu)) [Example 90]									70.8	49.8			

Reference: patent US20240270821A1, “GIP/GLP1/GCG TRI-RECEPTOR AGONISTS AND USES THEREOF” (priority 2023, published 2024)
